From PMC9521928 (2022)

Assays:
[1] = target: T1, CPXV14-His (His-tagged recombinant cowpox virus Brighton Red CPXV14) (cowpox virus (Brighton Red strain)); test: BLI
[2] = target: T1, CPXV14-His (His-tagged recombinant …); test: BLI; remark: listed apart in the source

B1: soluble recombinant murine FcγRIIB (mCD32B) ectodomain (receptor)
chain: THDLPKAVVKLEPPWIQVLKEDTVTLTCEGTHNPGNSSTQWFHNGRSIRSQVQASYTFKATVNDSGEYRCQMEQTRLSDPVDLGVISDWLLLQTPQLVFLEGETITLRCHSWRNKLLNRISFFHNEKSVRYHHYSSNFSIPKANHSHSGDYYCKGSLGRTLHQSKPVTITVQGPKSSRSLP
[1]
  koff: 0.00198 s⁻¹
[2]
  Kd: 2.94 nM
